Reference: patent publication US20150259664
Positions count from the first letter of the chain named.

Columns and labels:
[1] = molecular target: T1, RF1 variant A-18 (N296K/L297R/L298R)
T1 chain: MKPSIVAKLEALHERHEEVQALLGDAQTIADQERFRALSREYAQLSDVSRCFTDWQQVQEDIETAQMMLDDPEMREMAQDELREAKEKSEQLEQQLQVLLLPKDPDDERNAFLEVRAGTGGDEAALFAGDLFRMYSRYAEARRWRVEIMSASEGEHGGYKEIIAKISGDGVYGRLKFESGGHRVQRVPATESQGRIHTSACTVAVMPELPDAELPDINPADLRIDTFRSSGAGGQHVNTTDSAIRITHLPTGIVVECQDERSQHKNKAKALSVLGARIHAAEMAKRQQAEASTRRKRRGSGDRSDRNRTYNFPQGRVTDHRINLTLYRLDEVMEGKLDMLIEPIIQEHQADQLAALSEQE

[2] = molecular target: T2, RF1 variant A-17 (N296K/L297R/L298K)
T2 chain: T1 chain with R298K

[3] = molecular target: RF1 variant A-13 (N296K/L297R)
[4] = molecular target: Escherichia coli Release Factor 1 (RF1), wild type

B1: Escherichia coli Outer Membrane Protein T1 (OmpT1) (protein)
chain: STETLSFTPDNINADISLGTLSGKTKERVYLAEEGGRKVSQLDWKFNNAAIIKGAINWDLMPQISIGAAGWTTLGSRGGNMVDQDWMDSSNPGTWTDESRHPDTQLNYANEFDLNIKGWLLNEPNYRLGLMAGYQESRYSFTARGGSYIYSSEEGFRDDIGSFPNGERAIGYKQRFKMPYIGLTGSYRYEDFELGGTFKYSGWVESSDNDEHYDPGKRITYRSKVKDQNYYSVAVNAGYYVTPNAKVYVEGAWNRVTNKKGNTSLYDHNNNTSDYSKNGAGIENYNFITTAGLKYTF
Q: What does the source list for B1?
A: cleavage in lysed recombinant strain, 0, 1, 2 and 3 hours (Western blot) [1]: the modified RF1 protein variants were efficiently cleaved at all time points tested by the cell-free extract, as determined by Western blot analysis (data not shown); cleavage in lysed recombinant strain, 0, 1, 2 and 3 hours (Western blot) [2]: the modified RF1 protein variants were efficiently cleaved at all time points tested by the cell-free extract, as determined by Western blot analysis (data not shown); cleavage in lysed recombinant strain, 0, 1, 2 and 3 hours (Western blot) [3]: the modified RF1 protein variants were efficiently cleaved at all time points tested by the cell-free extract, as determined by Western blot analysis (data not shown); cleavage in lysed strain SBJY001, 0, 1, 2 and 3 hours (Western blot) [4]: cleavage of unmodified, wild-type RF1 by strain SBJY001 was not detected over the same time periods
